Experiments:
[1] = tested on: N[C@@H](CCC[C@H](NC(=O)CCC(=O)O)C(=O)O)C(=O)O; assay: purified protein; settings: 50 mM phosphate pH 7.5, 25 °C, two equivalents Zn(II)
[2] = biological target: the molecule itself; assay: dynamic light scattering; DynaPro-801, 21°C; 2.0 mg/ml in crystallization buffer (250 mM NaCl, 20 mM HEPES pH 8.0, 1 mM TCEP)
[3] = substrate: N[C@@H](CCC[C@H](NC(=O)CCC(=O)O)C(=O)O)C(=O)O; assay: purified protein; settings: 50 mM phosphate pH 7.5, 25 °C, two equivalents Zn(II); remark: listed apart in the source

Molecule | Km [1] [µM] | kcat [1] [s⁻¹] | binding result [2] | Km [3] [µM] | kcat [3] [s⁻¹]
WT-VcDapE (Vibrio cholerae O1 biovar El Tor str. N16961) | 1200 ± 200 | 80 ± 10 |  |  | 
N-succinyl-L,L-diaminopimelic acid desuccinylase (DapE) from Haemophilus influenzae, wild type, full length (enzyme, also called HiDapE; WT-HiDapE; source: E. coli BL21(DE3) derivative with pMAGIC; purification of the wild type not described) MKEKVVSLAQDLIRRPSISPNDEGCQQIIAERLEKLGFQIEWMPFNDTLNLWAKHGTSEPVIAFAGHTDVVPTGDENQWSSPPFSAEIIDGMLYGRGAADMKGSLAAMIVAAEEYVKANPNHKGTIALLITSDEEATAKDGTIHVVETLMARDEKITYCMVGEPSSAKNLGDVVKNGRRGSITGNLYIQGIQGHVAYPHLAENPIHKAALFLQELTTYQWDKGNEFFPPTSLQIANIHAGTGSNNVIPAELYIQFNLRYCTEVTDEIIKQKVAEMLEKHNLKYRIEWNLSGKPFLTKPGKLLDSITSAIEETIGITPKAETGGGTSDGRFIALMGAEVVEFGPLNSTIHKVNECVSVEDLGKCGEIYHKMLVNLLDS |  |  | binds | 800 ± 100 | 114 ± 10

From paper PMC4012986, “The Dimerization Domain in DapE Enzymes Is required for Catalysis” (PLoS ONE, 2014)
